# Assay: soluble on expression in E. coli; label from the status in PepcDB or PDB records
row,Sequence,soluble on expression in E. coli
1,MSLSNDTVSGPSMQPSFENGQRLISVRHAQIKRGEVVIVKAPDEPGALYIKRVIGMPGEKIVSKNNQIYINNKKLSQPWLTQGKKMIDAGSDTFYSATQNFTMKSLARSRQFQQYYTKSQLNYINKYNRIPKETYFVMGDHRSVSKDSRYIGTIKRKNVVGVVKLRYWPLNEFKIYEGHHHHHH,not soluble
2,MGSDKIHHHHHHMINNYLERQIKENFPYQPTFEQEIAVKSLSEFLLSTLADEVFILRGYAGTGKTSLVGALVKTMDQLQQKAVLLAPTGRAAKVFSSYAGHPAFTIHKKIYRQQSFSNETSNFSINDNLATNTLFIVDEASMISNEGLSGSMFGTGRLLDDLIQFVYSGQGCRLLLMGDTAQLPPVGEELSPALFADALKGYGLEVREVDLTQVVRQIQESGILWNATQLRQLIAEDNCYSLPKIKITGFPDIKMVPGTELIDAITSCYDHDGMDETIVICRSNKRANLYNNGIRAQILWREDELNTGDMLMIAKNNYYWTEQYKEMDFIANGEIAVVRRVRKTREMYGFRFAEVTLRFPDQNDFELDANLLLDTLHSDSPALPKVDNDRLFYTILEDYADISNKRDRMKKMKADPHYNALQVKYAYAITCHKAQGGQWQNVFLDQGYMTDEYLTPDYFRWLYTAFTRATKTLYLVNYPKEQIL,not soluble
3,MARLCTHTESGHYLMALDAGTGSVRAVIFDLQGKQIAVGQAEWQHLAVPDVPGSMEFDLAKNWQLACQCIRQALQKAAIPATAIAAVSACSMREGIVIYDSNGEPIWACANVDARAAHEVSELKELYDNTFEEEVYRCSGQTLALSAIPRLLWLAHHRPDIYHRASTVTMISDWMAFMLSGELAVDPSNAGTTGLLDLVTRNWKRSLLQMAGLRSDILSPVKETGTLLGHISQKAAEQCDLQAGTPVIVGGGDVQLGCLGLGVVRPAQTAVLGGTFWQQVVNLPAPVTDPNMNVRINPHVIPGMVQTESISFFTGLTMRWFRDAFCAEEKLIAERLGIDAYSLLEDMASRVPPGAYGVMPIFSDVMRFKRWYHAAPSFINLSIDPEKCNKATLFRALEENAAIVSACNLQQIAAFSGVQADSLVFAGGGSKGKLWSQILADVTGLTVHVPVVKEATALGCAIAAGVGVGVWPSLAETGEKLVRWDREHKPNPENFAVYQQAREKWQAVYQDQRALVDGGLTTSLWKAPGL,not soluble
4,MTGTVSRRKKIAMIGSGMIGGTMGYLCVLRELADVVLFDVVTGMPEGKALDDSQATSIADTNVSVTSANQYEKIAGSDVVIITAGLTKVPGKSDKEWSRNDLLPFNAKIIREVAQGVKKYCPLAFVIVVTNPLDCMVKCFHEASGLPKNMVCGMANVLDSARFRRFIADQLEISPRDIQATVIGTHGDHMLPLARYVTVNGFPLREFIKKGKMTEAKLAEIVERTKKAGGEIVRLLGQGSAYYAPALSAITMAQAFLKDEKRVLPCSVYCQGEYGLHDMFIGLPAVIGGGGIEQVIELELTHEEQECFRKSVDDVVELNKSLAALGPG,soluble
5,MAHHHHHHMEREKHENMLMAIARDFNSVDDLIETFLTFLENKTDYFHVMLNDKDVETLSEKYDGAILKNLLNNNNCGFKAHSREQLLIKSFRKHQINYIMRKQPYIIENEEIKNKYLTSCDELKKIKYMPTTKDMNKEKQENSTKVNSDVHSLNVTQENHISIWNGGKTDKYYWNQALKEINLEMPFNEEIKPNDVNVQITNTNIKIYHCGVLKLEGMFYEEVDKQECVWSIEDKKNIIIYLEKKRENWWPCVIKGDTEIDTKNIESKKNLTDFDEKTQGQIRKFLLEQRMKNEGIPTPEDLRKQNIINNVLSSKGEPFGR,not soluble
6,MGSDKIHHHHHHMREIMSIITLPRKIYQQRDIIDNIRETLQLKEPILLVSDRNIMKLYGQRIKNALDGSDYRVIEDVRPEPEVSDIENTYRSLSGFQPKTIIAFGGGSVIDFAKSIDVKISYPDRSLEEVNPFEPLNLKADLVAIPTTSGTGSDVSFGIVITDQGRKLALGNFDLVPYVSVLDSSLVPSDPSIIRPTGVDALVHSFEALTANTSSIFTDALAEKAIETIFGILIDPMKGEEDARENMHLAATMAGISFTNSGTALAHALGHSFGSTHHVVHGTCVGLFLPYVIEFNSSDENASEKYARIARRLGYKDAISALRDLYRRIGQPLTVAEIGIPKDAYMKSLDSMVEKALADSELAFNPVIAGDEDVRSIYIKAYGD,not soluble
7,MSSNCTSTTAVAVAPLSASKTKTKKKHFVCQKVKLFRASEPILSVLMWGVNHTINELSNVPVPVMLMPDDFKAYSKIKVDNHLFNKENLPSRFKFKEYCPMVFRNLRERFGIDDQDYQNSVTRSAPINSDSQGRCGTRFLTTYDRRFVIKTVSSEDVAEMHNILKKYHQFIVECHGNTLLPQFLGMYRLTVDGVETYMVVTRNVFSHRLTVHRKYDLKGSTVAREASDKEKAKDLPTFKDNDFLNEGQKLHVGEESKKNFLEKLKRDVEFLAQLKIMDYSLLVGIHDVDRAEQEEMEVEERAEDEECENDGVGGNLLCSYGTPPDSPGNLLSFPRFFGPGEFDPSVDVYAMKSHESSPKKEVYFMAIIDILTPYDTKKKAAHAAKTVKHGAGAEISTVNPEQYSKRFNEFMSNILT,soluble
8,MGHHHHHHSHPQLLHFVDQYREQLIARVTSVEVVLDKLHGQVLSQEQYERVLAENTRPSQMRKLFSLSQSWDRKCKDGLYQALKETHPHLIMELWEKG,not soluble
9,MGSDKIHHHHHHGKPLRKVDLLADIRPDVEEEVCDSDTIVLPPPVKPIFVDTCKTGITCIEDYSDSTMRGMKHFYEALSKVKTMKRPVRIAYFGDSFIEADIFTADLREMLQQEFGGCGVGYVPVTSSISGYRPTVRHTFGGWSSHSSNDSVGFDKMQQDISGHYFFPREGAYVQLKGQSKYASRLDTCEVSTFYFLNKGFAAVRSKVNNAAEGELHEEVGTGGVQAVSVRGRIGQVRWSVEQADSVTFYGVAMDGRQGISLDNFSVRGSSGLHLRSIPLHTLCDFQRLRPYDLIVVQYGLNVATERGVKYDGYKKGMLSVIEHLKTAFPETSILLVSVGDREYKNENGDLRTMPGVKNLIRYQQSIAADSHIAFWNMYEAMGGQGSIVDMIGQKMANLDYTHINFKGGKHLAGILFETLMYGKEQYERRKAYEEE,not soluble
10,MHTKGPTPQQHDGSALRIGIVHARWNETIIEPLLAGTKAKLLACGVKESNIVVQSVPGSWELPIAVQRLYSASQLQTPSSGPSLSAGDLLGSSTTDLTALPTTTASSTGPFDALIAIGVLIKGETMHFEYIADSVSHGLMRVQLDTGVPVIFGVLTVLTDDQAKARAGVIEGSHNHGEDWGLAAVEMGVRRRDWAAGKTE,soluble
11,ENALIGVNDHTLVTENDGRRWVTREPAIVYFHKKYWFNIIAMIRETGVSYYCNLASPYILDPEALKYIDYDLDVKVFADGEKRLLDVDEYEQHKAQMNYP,not soluble
12,MYHNNNYGYNNHRGGGGFRHNNYNNNNNNHHHHYNNLPRINETQVPQSKHTIFIRGLHGDISTEEIKEYIGEKVGKISFDFVKVAQDKSKIFVAVRFENRDEAKEFMETYSDREFMGCRCDLSWFRDIRRYCAYQRAKQVRSNSQRRRRRSDSQESSKRSASPPVRRGRSKSRSRSRSPSRSRSRSRSRSVSRSKSPASRNGRVSRHRSRSQNRSRSRSNTRSRSRSSGRSGSAHSRKSDDVDSFDDESFDEKSRVKDNEARQKRRRELSDDDRKDVRETQPKKSVKEELPQIPLPPKTEAAASPSPAPPTPKASKSASFIPPPTADDMELESPPHVSNNQYEYQQSNNTYNQIRTGASPVSVSYSVPMEVEATPKMIVRETPQPAQPPVQVNSYYTTTPIQQQQQQQQPIPPQLPTACAPVCKYLTKIFRVETRYHIPRGANFHVCVIRFSPPQPPPTTPQPAFVPRQIGRIEIVMPSSLPAPVVSAAAASASAAAHPVAMNGSAISGGSSMPDITMHPNTNKLFGHLKAFQSALLSTVKYEPPARKEEDEAGFSTLRLSSLATEDDSADEEKAMVRELKLAKLNDEQMMRFHIKKKQLESAFRNDCETYAVVTRALLAKDESLQFGLKMALLENMEDLYKKMMQRVDDQLDALLVMA,not soluble
13,MSLSEVLDLDGELNLLVWNIYKQNRANWSTQLTELSRDQQLLLLQEANMTPAFKEWIHQLGWDGTQARAFEAFGETAGVINLAKVMPTMACAYTQLEPWLRLPKSAIYARYRLSDGQELVVVNLHAVNFTYGTQEYQQQLIALLDELRDFTGPVIVAGDFNSWSEARMALLSTQLASVGLQEVRFSPDNRTTFINGLPLDHVFYRGLQLEKAEAPISDASDHNPLLVRFRLLNEGHHHHHH,soluble
14,MDLSTIKVFEQKLELHREMPMKVVKKELHFSTKGEIDLVDITREVELFVAESGISKGQVLIFVPGATGAVVAIEHEEGLLEDFKKILKEIVPKEKPYLHNRFDDNAHSHIRATLLGPSLVFPIVDGELVRGTWQQIFFVELDTRPRKRRILLQAIGE,soluble
15,MLRFGFAAVLLVLAGCSAPMGPEALGPGSYQAAPDPGPFLTPADAQRAFPAVVARVEPVAEAICRERTRGVPCDFQIAVDARPGLDPNAFQTLDDYGRPVIGLTLSLISDARNVDELAFVVGHETAHHILGHIPRQRETALTGAVLAGVLAQMGGADAQTIRSVQEFGANVGARSYSKNFELEADGLGTEIAIRAGYDPVHGAQFFTRLPDPGDTFLGSHPPNAQRIAAVRRAAESIGYVSAWLEHHHHHH,not soluble
16,TKNWKWEMNFNIAKNSNKLVELADGVDSYSIYWTSFTTRLYNYAMVGKSLGVITGNTWERDDNGNIIFHELSASQKALYGGEYVPTYNQNTLDELGNFHPDFTGGFNTSISFKNFRLSANIDFSVGGQIVSYTNMWGSSSGILDKTAELNDRGVNVREPVSKGGGIHMTGVDQNGNKVDTYVNAKLYYTTASRVWEEWVYDRTYVKLREVSLSYVFPSQTLKKLNIGLSRASVAINASNPWLIYSACPNVDVSEIGMGYFEGGNAAATRSIGFTVNLAF,not soluble
17,MSLELKPKRFLVLDDQLVLRKLISRQASFFTRFAVEIDEFSDPAEALRSIAEGGYHLVITDIGMPGMNGIDFIKNVARLGYQSALLIISGYDGKTLQTIADMSVNLGLSCTRFLSKPYSAEAFVAALNGIFSEMERSEAPAVGDVAQLLADLGGETFRMQFAPVRSLHGRRLAGFTLRTLQLPDGRRLAFDRLLALLAGRRMASAALLEIVVERTARLLQDMRLSAGIDDCRVNIRIDEACLSADNVFDRCFMALQQSEVSPACLGFALADGLNRRSDALCFENIAKVKYLGFRLLADGFGQGSLTVSNLFRLPFDQVNAPLEALQWMKILQGEDPGAFRLLRSFGLGQAPVCATGLDDEESLALAQALGCGLGEGDAVSLAVPEEELLQEMAAVPEGEGHHHHHH,soluble
18,MSLTENKELRDILGGYHDNIKSKIMENKLDEAIYLVDSLSATFKLPSSGYDRSSCTPYNNEVSEKYGIEEYVNASLIPTPRTLFIAAQNPKDEKRDVFTDLLMKSNTKLVVSLIDDPRYFEEEWLQDRKVIKYMNKDLFIDEIYNIRGRNIRRLRYINWVDFSVITREEMEVFHSYFDSVRTEVVLVHCIAGVGRTGTFIMYDILKRMENITLDTFIDVFLNLRSKRAHLVTNKIQLEFLKNIFLESEGHHHHHH,soluble
19,MNDSILEPKHRGNVREIAAIDLGSNSFHMIVARIVNGSIQVLSRLKQKVKLAEGLDENAVLNQEAITRGVNCLALFAERLQGFPMENVNVVGTYTLRRAVNNDEFLRQAAKVFPYPINIISGQTEAKTIYAGVCHTQPEKGRKLVIDIGGGSTEMIIGDDFTPLMAESRHMGCVSFATQFFTDGIISPENFQRARQSAVNKIEDLGLEYRKLGWQSVLGSSGTIKTVAQVIATNLDPNGTITAERLNALIEQTLQAKHFTELNINGLNQDRVDVFVPGLAILSAVFDVFHIQQMRYSDGALREGVIYSLEKNFQVADIRASTALEHHHHHH,not soluble
20,AAPTATVTPSSGLSDGTVVKVAGAGLQAGTAYWVAQSAWVDTGVYASNPADISSVTADANGSASTSLTVRRSFEGFLWDGTRWGTVDCTTAACHVTLRDALSNGPEGVAISF,soluble

# Reference: the DeepSol protein solubility set
